The values below come from PMC4259888.

Assay [1] deals with HIV-1 CA hexamers (A14C/E45C/W184A/M185A) (HIV-1). In words: SEC; size-exclusion chromatographic profiles of purified individual CA hexamers, pentamers and monomers.
The target of assay [2] is HIV-1 CA pentamers (A21C/E22C/W184A/M185A) (HIV-1). The assay is described as above.

On to “HIV-1 CA hexamers (A14C/E45C/W184A/M185A) (natural protein)”, for which, in assay [1], the stoichiometry N (commonly a count of units in the complex or per binding partner) is 6.

For “HIV-1 CA pentamers (A21C/E22C/W184A/M185A) (natural protein)”, in assay [2], the stoichiometry N stood at 5.
